Measurements: US12378310 (MULTITUDE, dated 2025)

B1: FOLR1-Ab1 (antibody, V domains shown)
VH: QVQLQQPGAELVRPGASVKLSCKASGYTFTSYWMNWVKQRPEQGLEWIGRINPYDSETHSNQKFKDKAILTVDKSSTTAYMQLSSLTSEDSAVYYCARSGGYAWFAYWGQGTLVTVSA
VL: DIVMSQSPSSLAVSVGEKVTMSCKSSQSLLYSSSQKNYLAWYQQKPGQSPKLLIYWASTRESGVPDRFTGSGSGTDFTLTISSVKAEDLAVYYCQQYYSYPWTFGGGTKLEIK
notes: Monoclonal antibody from a hybridoma clone; V regions amplified with mouse Ig primers
B2: FOLR1-Ab20 (antibody, V domains shown)
VH: EVLLQQSGPELVKPGASVKIPCKASGYTFTDYNMDWVKQSHGKSLEWIGDINPNNGGTIYNQKFKGKATLTVDKSSSTAYMELRSLTSEDTAVYYCARKPYYGPRYFDVWGAGTTVTVSS
VL: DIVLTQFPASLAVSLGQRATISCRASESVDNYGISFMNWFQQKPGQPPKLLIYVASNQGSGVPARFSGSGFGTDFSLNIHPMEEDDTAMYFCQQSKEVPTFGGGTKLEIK
notes: as for B1
B3: FOLR1-Ab23 (antibody, V domains shown)
VH: B2 VH
VL: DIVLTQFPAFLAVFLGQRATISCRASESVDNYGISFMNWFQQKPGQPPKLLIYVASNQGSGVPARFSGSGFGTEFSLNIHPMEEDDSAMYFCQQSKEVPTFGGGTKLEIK
notes: as for B1
B4: FOLR1-Ab14 (antibody, V domains shown)
VH: B2 VH
VL: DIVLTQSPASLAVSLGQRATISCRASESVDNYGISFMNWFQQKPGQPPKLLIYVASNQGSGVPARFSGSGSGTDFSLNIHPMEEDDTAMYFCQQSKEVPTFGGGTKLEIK
notes: as for B1
B5: FOLR1-Ab4 (antibody, V domains shown)
VH: QIQLVQSGPELKKPGETVKISCKASIYTFTDYSIQWVKQAPGKGLKWMGWINTETGEPTYADDFKGRFAFSLESSASTAFLQINNLKNEDTATYFCARMGYYGPKIMDYWGQGTSVTVSS
VL: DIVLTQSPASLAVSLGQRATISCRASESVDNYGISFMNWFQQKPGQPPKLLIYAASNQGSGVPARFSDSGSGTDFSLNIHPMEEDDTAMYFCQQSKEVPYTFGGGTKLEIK
notes: as for B1

Target: recombinant FOLR1 protein (rProtein) (Homo sapiens (Human), UniProt P15328 25-234, limits assumed)
Assay: ELISA titration with varying concentrations of recombinant FOLR1 protein
Description: Antibodies were tested in an antigen binding assay using ELISA titration experiments.

recombinant FOLR1 protein (rProtein), sequence (P15328 25-234 limits assumed): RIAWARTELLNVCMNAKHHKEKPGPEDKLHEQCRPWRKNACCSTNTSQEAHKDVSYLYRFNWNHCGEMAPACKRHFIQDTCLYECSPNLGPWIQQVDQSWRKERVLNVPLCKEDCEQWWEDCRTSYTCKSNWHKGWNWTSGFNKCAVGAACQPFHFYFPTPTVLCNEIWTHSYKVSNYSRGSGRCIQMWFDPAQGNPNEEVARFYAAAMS

| Binder | rProtein ELISA Affinity |
| --- | --- |
| B1 | 0.39 nM |
| B2 | 12.5 nM |
| B3 | 6.25 nM |
| B4 | 3.12 nM |
| B5 | 0.78 nM |
